The DeepSol protein solubility set

Experiment: soluble on expression in E. coli; label from the status in PepcDB or PDB records
With “KIIHIDCDCFYAALEMRDDPSLRGKALAVGGSPDKRGVVATCSYEARAYGVRSAMAMRTALKLCPDLLVVRPRFDVYRAVSKQIHAIFRDYTDLIEPLSLDEAYLDVSASPHFAGSATRIAQDIRRRVAEELHITVSAGVAPNKFLAKIASDWRKPDGLFVITPEQVDGFVAELPVAKLHGVGKVTAERLARMGIRTCADLRQGSKLSLVREFGSFGERLWGLAHGIDERPVEVDSRRQSVSVECTFDRDLPDLAACLEELPTLLEELDGRLQRLDGSYRPDKPFVKLKFHDFTQTTVEQSGAGRDLESYRQLLGQAFARGNRPVRLIGVGVRLLDLQGAHEQLR” the “soluble on expression in E. coli” value was “not soluble”. With “KIQEWLGESDYSDFLSVVEAVHDSGPSFVLQAMKSLDKYDAMMCISVDSMVNRIQELIDDTMVMSTNNPWGVIPSEGGAGLIFCRRNTVETLKLKPLAQLGYIDTELNTSDRRGMYRLVQRASKKLTAFGEVYSDMTNLRAHSEDYGFALGAKAERFINPEQPLLINE” the “soluble on expression in E. coli” value was “not soluble”. For “KKLNDFQEDAVNTILYSNKRKFLIHGVTGSGKTEIYMHLVKKMIEDNKQSIILVPEISLTPQMIERFKGRFGLNVAVFHSKLSDGERYDEWIRVKNGEVKVAVGARSALFLPFDKLGLIVIDEEHEGSYKSESDPKYNAIEVAEMKSAIEDCILVLGSATP”, the “soluble on expression in E. coli” value was “not soluble”. In the case of “KKNYALSFNANVGFNKNKVKSLGSLMDYSADSGWASTDIQSDFKVQPGHSVGEIYGFVSDGRYEVSDFEGFIDGKWVLKAGVADASDIIGEKYLRPGAMKLKNVDGSEDNKVTKDDQKVIGDTNPFCSGGFSVNARVYGFDLTANFTYSIGNDIYNANKIEYTSSSKYKYRNMIDVMAEEKRWTNLNADGTICNDPTQLAAMNANTSMWSPWTQKYVLTDWAVEDGSFLRLATLSIGYTLPQTLTRKVGIQNLRFYATGYNLFCITNYSGFDPEVSTRTKSALTPGVDYSAYPRSRQYVIGLNLTF”, the “soluble on expression in E. coli” value is reported as “not soluble”. With “KKRIQTEHCSYNRRRDYPLFKFIEYVLYWGHHYTVSISEKVQEELVKFMPRYQHKYRVVHNGVDLNRFPMTAKQAHDISEKATINIGMVGRLHEHKDHETLIHAIAKLPECYHLHLAGDGDRKASLQRLAQSLNVSPRVHFHGVVSDIPRFLSDMDIYVQSSHVE” the “soluble on expression in E. coli” value was “not soluble”. With “KKTSGNQDEILVIRKGWLTINNIGIMKGGSKEYWFVLTAENLSWYKDDEEKEKKYMLSVDNLKLRDVEKGFMSSKHIFALFNTEQRNVYKDYRQLELACETQEEVDSWKASFLRAGVYPERV” the “soluble on expression in E. coli” value was “soluble”. For “KLEGAFAKGTNVLMADGSIECIENIEVGNKVMGKDGRPREVIKLPRGRETMYSVVQKSQHRAHKSDSSREVPELLKFTCNATHELVVRTPRSVRRLSRTIKGVEYFEVITFEMGQKKAPDGRIVELVKEVSKSYPISEGPERANELVESYRKASNKAYFEWTIEARDLSLLGSHVRKATYQTYAPILYENDHFFDYMQKSKFHLTIEGPKVLAYLLGLWIGDGLSDRATFSVDSRDTSLMERVTEYAEKLNLCAEYKDRKEPQVAKTVNLYSKVVRGNGIRNNLNTENPLWDAIVGLGFLKDGVKNIPSFLSTDNIGTRETFLAGLIDSDGYVTDEHGIKATIKTIHTSVRDGLVSLARSLGLVVSVNAEPAKVDMNGTKHKISYAIYMSGGDVLLNVLSKCAGSKKFRPAPAAAFARECRGFYFELQELKEDDYYGITLSDDSDHQFLLANQVVVHACGER”, the “soluble on expression in E. coli” value was “soluble”. For “KLMKVNHAADAAEEGLVSDPLEWTGVRIGPGINGTIAQLPTLAGEEIIATRVVHSKTFHSLAAPNDRLHEGMVLVIHGTPDALERAIAKVGKQQDVPIEDTDLVYSRFTVSSKAVVGRKISDLDTVRSGFIISRLRRGDADVVPEPDDVLHYSDRVRVIAPANRMSEVRRFLGDSERSLADVD”, the “soluble on expression in E. coli” value was “not soluble”. For “KPMKILLANPRGFCAGVDRAISIVERALELYQPPIYVRHEVVHNRFVVEGLKQRGARFVEELNEVPDDNIVIFSAHGVSQAVRQEAKERSLTVFDATCPLVTKVHMEVARASRKHMEVVLIGHAGHPEVEGTMGQYASDTGGMYLVEKPEDVVSLQAKVKDPSNLHYVSQTTLSVDETADVIDELRRVFPKIQGPRKDDICYATQNRQDAVRILAEQVDVMVVVGSKNSSNSTRLKELAEKLGTPGYLIDCPQDIDPEWFVDAQLIGVTAGASAPEELVNQILDRIKELGAT”, the “soluble on expression in E. coli” value was “not soluble”. In the case of “KQEVSGQVIYLNRGKSFFAFIKEYLEKETGYKKGVKWNRIALDEVEIITSEMSQARKENIKEAFLDGAVKIIIGTATIREGIDLQRKGTVIYNCYPDWNPTDIRQLEGRIWRQGNE”, the “soluble on expression in E. coli” value is reported as “not soluble”. For “KRFGWTNELMFLFAPIPWSRLPYHSIGYRASGRSYARKEHKPFRYNGFSPGIGINSCLWWKVSVRDEYIFRIGLNVGYEYMDQLYAYRHFKVNEEKPLSSLSQRLKHIGHIGLNFALSLN”, the “soluble on expression in E. coli” value was “not soluble”. With “KRIVLGVGGGIAAYKSAELVRRLRDQGAEVRVVMTQGGREFITPLTLQALSGHPVHTDLLDPAAEAAMGHIELARWADLVLIAPATADLMARLVQGVANDLLTTLVLATDAQIALAPAMNQAMWRDTATQANAELLRQRGFHLFGPAAGSQACGDVGLGRMLEAEELAQRAADCFQRQALTGVHVLITAGPTQENIDPVRYITNHSSGKMGFALAEAAVEAGARVTLVTGPVHLPTPDRVQRVDVVSARDMLAACEAAMPCDLLIASAAVADYRPEVVAAHKLKKDPTSGEGLLLQLVRNPDILATLAQREDRPFSVGFAAETENLLDYAARKLKDKNLDLIVANDVANPSIGFNSDENAITVIDRDLHPSTFAQTSKGKIARQLVAFIAD” the “soluble on expression in E. coli” value was “not soluble”. In the case of “KRVFGFVSAKGGDGGSCIAANFAFALSQEPDIHVLAVDISLPFGDLDMYLSGNTHSQDLADISNASDRLDKSLLDTMVQHISPSLDLIPSPATFEKIVNIEPERVSDLIHIAASFYDYIIVDFGASIDHVGVWVLEHLDELCIVTTPSLQSLRRAGQLLKLCKEFEKPISRIEIILNRADTNSRITSDEIEKVIGRPISKRIPQDEDAMQESLLSGQSVLKVAPKSQLSKTIVDWALHLNGVSRPNKRSIWERLKIK”, the “soluble on expression in E. coli” value is reported as “soluble”. In the case of KSCCSCCPAGCEKCAKDCVCKGEEGAKAEAEKCSCCQ, the “soluble on expression in E. coli” value is reported as “soluble”. In the case of “KSITITTPYFVPSEILLHTLRTTAHRGVEVKLILPKKNDSLMVNWASKSFFETLLKAGVQIHEFNGGLLHTKSVVIDESHCIIGTVNLDMRSFWLNFEVSLIVDDPEFTKQLSWVLDGYLEQSTQVCFDTWRHRSWGNRFTERFFSMFSPLL”, the “soluble on expression in E. coli” value is reported as “not soluble”. In the case of “KSIYLQSPYFIPDQSYINALKMAANSGVEVNLMIPCKPDHPFVYWATFSNAADLLDSGVNIYTYQNGFIHSKILMIDDEISSIGSANMDFRSFELNFEVNAFIYDEDIAKQLRQAFEKDIEQSKLLTKEVYDKR”, the “soluble on expression in E. coli” value is reported as “not soluble”. In the case of “KSLTLVLHRDSGSLGFNIIGGRPSVDNHDGSSSEGIFVSKIVDSGPAAKEGGLQIHDRIIEVNGRDLSRATHDQAVEAFKTAKEPIVVQVLRRT”, the “soluble on expression in E. coli” value is reported as “soluble”. With “KSVYLQSPYFIPDNSYINAIKIAAKSGVDVHLMIPCKPDHPLVYWATFSNASDLLSSGVKIYTYENGFIHSKMCLIDDEIVSVGTANMDFRSFELNFEVNAFVYDENLAKDLRVAYEHDITKSKQLTKESYANR” the “soluble on expression in E. coli” value was “not soluble”. For “KSYASTPELRKTWLDSMARIHVKNGDLSEAAMCYVHVTALVAEYLTRKGVFRQGCTAFRVITPNIDEEASMMEDVGMQDVHFNEDVLMELLEQCADGLWKAERYELIADIYKLIIPIYEKRRDFERLAHLYDTLHRAYSKVTEVMHSGRRLLGTYFRVAFFGQGFFEDEDGKEYIYKEPKLTPLSEISQRLLKLYSDKFGSENVKMIQDSGKVNPKDLDSKYAYIQVTHVIPFFDEKELQERKTEFERSHNIRRFMFEMPFTQTGKRQGGVEEQCKRRTILTAIHCFPYVKKRIPVMYQHHTDLNPIEVAIDEMSKKVAELRQLCSSAEVDMIKLQLKLQGSVSVQVNAGPLAYARAFLDDTNTKRYPDNKVKLLKEVFRQFVEACGQALAVNERLIKEDQLEYQEEMKANYREMAKELSEIMHEQLG”, the “soluble on expression in E. coli” value was “soluble”. With “LAAGPALSARGYLALNGQTPAGCSLMEWQNDNNGRQRWCVRLVQGGGFAGPLFDGFDNLYVGQPGAIISFPPTQWTRWRQPVIGMPSTPRFLGHGRLLVSTHLGQLLVFDTRRGMVVGSPVDLVDGIDPTDATRGLADCAPARPGCPVAAAPAFSSVNGTVVVSVWQPGEPAAKLVGLKYHAEQLVREWTSDAVSAGVLASPVLSADGSTVYVNGRDHRLWALNAADGKAKWSAPLGFLAQTPPALTPHGLIVSGGGPDTALAAFRDAGDHAEGAWRRDDVTALSTASLAGTGVGYTVISGPNHDGTPGLSLLVFDPANGHTVNSYPLPGATGYPVGVSVGNDRRVVTATSDGQVYSFAP” the “soluble on expression in E. coli” value was “not soluble”. With “LAAGQLADLVVLSKDYFSVAEEEIKGIESVLTVVDGKVVYAAGHFSPLAPPPIPVLPEWSPVVKVPGHYRSAPPATAKIGAMVQMHQCCGSCGVHGHQHDIARKSSIPVSDEQAFWGVLGCSCFA” the “soluble on expression in E. coli” value was “not soluble”. In the case of “LARMSEREIDISLGTTVGRSLWRLAQGHDDREVAPRAIAKQISVEHTYPKDLVTSRAVDTAIIRASRESHRRLLDDGRGARTVSVKLRMADFRIESRSATLPYATDNLDTVTATALKLARYPDEVGPIRLVGVGLSGLEDARQDILFPELDRVVPVKDTDFEVGVSDPHDSDLEISTTDESPTAIGWRATQDIWHPDYGHGWVQGLGHGKITVRFETRTTGPGKVRTFDTNDALLSSADPINSLDWS”, the “soluble on expression in E. coli” value is reported as “not soluble”. For “LARPKLAVVGSRNASQMGVAAVKKIIQDLSKQFVIISGLARGIDTAAHLASLKSGGATIAVIGTGLDVHYPKENRRLQDYIAKNHLLLSEYEAQSQPLKYHFPERNRIIAGLSQGVMVAEAKIRSGSLITCERAMEEGRDVFVVPGNILDGQSEGCHHLIQEGAKCITSGFDILNEFNF”, the “soluble on expression in E. coli” value was “not soluble”. With “LGSGTTEDVSDLPVEEQLRRLQEERTCKVCMDKEVSIVFIPCGHLVVCKDCAPSLRKCPICRSTIKGTVRTFLS” the “soluble on expression in E. coli” value was “soluble”. In the case of “LIIGVTGCPAGIAHTYLAAEALEKGAAALGFEIKVETNGSIGVKNSPSAEEIERAEAIVVACDKQVDMARFAGKRLIKTNVKAPIRDAQKLINEALRAPTY”, the “soluble on expression in E. coli” value is reported as “not soluble”. With “LKASGVQAQMAKQQEQDPTNLYISNLPLSMDEQELENMLKPFGQVISTRILRDSSGTSRGVGFARMESTEKCEAVIGHFNGKFIKTPPGVSAPTEPLLCKF” the “soluble on expression in E. coli” value was “soluble”. With “LKFGTSWKEAYGTGWLIDWKDVKQDNKFTAYLATNLHVADSLRNKDDYKPYNKDGNQKEFLPGDITTEFSLGKYIDA” the “soluble on expression in E. coli” value was “not soluble”. For “LKVSEPAPKGFLIIGANDVARQVGLAIAKYDCRVVVTDSNWDYIRQARMTGLEHYYGNPISSHAEDYLNLIGIGHVLALSPDKHFNIMACMQFLSDFGDKRVFCLNDNPTNNVSEKHLVAQEYHGLPFLGGEVSYKKLASLVGQGAEVKHTKLS”, the “soluble on expression in E. coli” value was “not soluble”. With “LLWPNYMRPLPAFSILQFDPLTRPGGALRVERDTPVESRPVGEVACRFRTCYATEVLPLVLEALNYSVTGEGALLGLRLAMNCDGHLGELGLSRLRLHLAGERYISQMLYLCLLRNLESIQLIPLDAHGRPLDGVAGKPMSFRLTGERVQPVGFAEDEALIPYPLNTFRGYRYLQEYFAFQDKFLFVDVDGLDLLGALPEETLKQVRGLELRFDIRKSGIQRLHPTLENVKLYCTPVANLFRHDALPIRLDGKQDEYLLMPAEYSLEDCGVFSVEGVTGWRPGGLGYQAYVPFESFEHDPSFDVPEARPHYSVRQRTSLLHDGLDTYLSFGIRHPEQIETLSVELTCTNQNLPQRLRLGDICVACEGTPEFLGFRNITPATPSYAPPLNRDFLWKLISNMSLNYLSLANVDALKVILETYDLPRYYDQHAAKVSKRLLGGLKAVRHEHVDRLHRGLPLRGLRTELTIDPEGYIGEGDLFVFASVLNEFFALYASINSYHELRVRSTQGDVYQWKPRMG” the “soluble on expression in E. coli” value was “not soluble”.
